The test system of the data set is ATP. Briefly: switch fluorescence ratio, 500 uM ATP over buffer (Cy3 cluster intensity, sum of 5 cycles each) (fold (ratio)); higher = stronger signal-on switching upon ATP binding; sequences stand for … in TCGTCGGCAGCGTCAGATGTGTATAAGAGACAGTTTTTTTTTTTTTTTTTTTTTTTTT…TC. The settings on record: aptamer strand: ATP DNA aptamer (quencher-CACCTGGGGGAGTATTGCGGAGGAAGG + anchor), 100 nM annealed; ATP concentration: 500 uM. In a few lines: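 The quencher-labelled ATP aptamer, at 100 nM, was annealed to Cy3-labelled switching-strand clusters on a modified Illumina MiSeq flow-cell. The clusters were imaged in selection buffer, then after 15 min with 500 uM ATP at 22 °C, and this buffer/ATP cycle ran five times with NaOH stripping and re-annealing between runs. Per-cluster fluorescence ratios, summed target-cycle over summed buffer-cycle Cy3 intensity, were averaged per switch-domain sequence. Clusters outside 100-1000 RFU were excluded.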

± gives the standard deviation of the averaged measurements.
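Further: ATP exposure 15 min at 22 °C before imaging.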

Consider GTCGGGCCCG, for which the switch fluorescence ratio was 1.01 ± 0.06.

On to GTCGGGCGTA, for which the switch fluorescence ratio came to 0.991 ± 0.016.

GTCGGGGGGC: the switch fluorescence ratio was determined as 0.985 ± 0.021.

Take GTCGGGGGGT: the switch fluorescence ratio came out at 1 ± 0.025.

For GTCGGTAGGT, the switch fluorescence ratio was determined as 1 ± 0.032.

In the case of GTCGTCCTGT, the switch fluorescence ratio was 0.9884 ± 0.0083.

In the case of GTCGTTGCCT, the switch fluorescence ratio worked out at 0.99139 ± 0.00027.

On to GTCGTTGGTG, for which the switch fluorescence ratio came to 1 ± 0.056.

In the case of GTCGTTTAAA, the switch fluorescence ratio is 0.9898 ± 0.0062.

In the case of GTCTAAAATC, the switch fluorescence ratio is 0.978 ± 0.038.

On to GTCTAAGAGT, for which the switch fluorescence ratio turned out to be 0.9786 ± 0.0048.

Consider GTCTAAGTGC, for which the switch fluorescence ratio stood at 0.996 ± 0.011.

With GTCTAATATG, the switch fluorescence ratio turned out to be 0.9716 ± 0.0048.

As to GTCTAATCAT, the switch fluorescence ratio turned out to be 0.967 ± 0.019.

Take GTCTCATCAC: the switch fluorescence ratio was 1.01 ± 0.056.

Take GTCTCTTAGG: the switch fluorescence ratio came out at 1.01 ± 0.014.

Take GTCTCTTCAT: the switch fluorescence ratio came to 0.986 ± 0.026.

With GTCTGATTTA, the switch fluorescence ratio amounted to 1.01 ± 0.011.

For GTCTTAGGTC, the switch fluorescence ratio was 1 ± 0.035.

As for GTCTTGGGTG, the switch fluorescence ratio was 1.02 ± 0.019.

With GTCTTGGTTC, the switch fluorescence ratio worked out at 0.9721 ± 0.0084.

Take GTCTTTAGGG: the switch fluorescence ratio was 0.9755 ± 0.0055.

As for GTCTTTTGTG, the switch fluorescence ratio was determined as 1.31 ± 0.43.

As for GTGAAGGTCG, the switch fluorescence ratio was found to be 0.927 ± 0.022.

Regarding GTGAATAGTT, the switch fluorescence ratio came out at 0.995 ± 0.032.

As for GTGAATGCTG, the switch fluorescence ratio was determined as 0.938 ± 0.048.

Regarding GTGACAAAAA, the switch fluorescence ratio was found to be 1.027 ± 0.0026.

On to GTGACCGTGT, for which the switch fluorescence ratio was found to be 1 ± 0.053.

Take GTGACGAAGA: the switch fluorescence ratio was determined as 1.033 ± 0.0065.

For the sequence GTGACGATGT, the switch fluorescence ratio was 1.01 ± 0.0071.

Take GTGACGGGGC: the switch fluorescence ratio was determined as 1.02 ± 0.058.

Turning to GTGAGAAGAA, the switch fluorescence ratio was found to be 0.97 ± 0.01.

Regarding GTGAGAGAGT, the switch fluorescence ratio was found to be 0.962 ± 0.015.

Consider GTGAGCCGTT, for which the switch fluorescence ratio is 1.04 ± 0.025.

In the case of GTGAGGATGG, the switch fluorescence ratio was found to be 0.978 ± 0.012.

GTGAGGATTG: the switch fluorescence ratio was found to be 0.98581 ± 8e-05.

Turning to GTGAGGGGCT, the switch fluorescence ratio was 0.977 ± 0.04.

As for GTGAGGGGGG, the switch fluorescence ratio is 1.01 ± 0.013.

For GTGAGGGTGG, the switch fluorescence ratio was determined as 0.9695 ± 0.0093.

For GTGAGGTATC, the switch fluorescence ratio amounted to 1.04 ± 0.032.

On to GTGAGGTCGG, for which the switch fluorescence ratio came out at 0.968 ± 0.015.

With GTGAGTAGGT, the switch fluorescence ratio was 0.974 ± 0.014.

In the case of GTGAGTCAGC, the switch fluorescence ratio worked out at 1.06 ± 0.075.

Turning to GTGAGTTTGT, the switch fluorescence ratio came to 1.01 ± 0.027.

With GTGATAAAAT, the switch fluorescence ratio turned out to be 1.01 ± 0.031.

For the sequence GTGATACAAA, the switch fluorescence ratio is 0.999 ± 0.022.

As for GTGATCCCCG, the switch fluorescence ratio was determined as 1.006 ± 0.0041.

With GTGATGACTT, the switch fluorescence ratio was found to be 1.001 ± 0.0061.

Regarding GTGATGGATG, the switch fluorescence ratio was found to be 0.997 ± 0.057.

GTGATGGTTT: the switch fluorescence ratio was determined as 0.982 ± 0.013.

As for GTGATGTCTC, the switch fluorescence ratio came out at 1.008 ± 0.0091.

With GTGATTATGG, the switch fluorescence ratio is 0.981 ± 0.028.

With GTGATTTGCG, the switch fluorescence ratio is 1.008 ± 0.0036.

With GTGATTTGT, the switch fluorescence ratio amounted to 1.01 ± 0.03.

For GTGATTTTCT, the switch fluorescence ratio was 0.998 ± 0.015.

On to GTGCAATGGC, for which the switch fluorescence ratio is 1.57 ± 0.18.

For GTGCCAACGT, the switch fluorescence ratio was determined as 0.981 ± 0.035.

As for GTGCCCTGTA, the switch fluorescence ratio amounted to 0.9704 ± 0.0046.

With GTGCGAATGG, the switch fluorescence ratio came out at 0.998 ± 0.016.

With GTGCTAGCTC, the switch fluorescence ratio turned out to be 1.004 ± 0.0034.

With GTGCTAGGTT, the switch fluorescence ratio stood at 0.984 ± 0.023.

In the case of GTGCTTAGGC, the switch fluorescence ratio worked out at 1.06 ± 0.026.

As to GTGCTTGGGC, the switch fluorescence ratio is 0.9955 ± 0.0058.

In the case of GTGCTTGGGG, the switch fluorescence ratio was found to be 0.99 ± 0.044.

In the case of GTGGAAAAAA, the switch fluorescence ratio worked out at 1 ± 0.02.

In the case of GTGGAAAGAT, the switch fluorescence ratio was 1.01 ± 0.018.

Regarding GTGGAAGGTA, the switch fluorescence ratio is 0.991 ± 0.011.

With GTGGAATGGT, the switch fluorescence ratio was determined as 0.986 ± 0.024.

With GTGGACAGGG, the switch fluorescence ratio was 1 ± 0.013.

As to GTGGAGGCGC, the switch fluorescence ratio stood at 0.989 ± 0.023.

GTGGAGTTGG: the switch fluorescence ratio stood at 1.31 ± 0.44.

GTGGATAAAA: the switch fluorescence ratio was 0.972 ± 0.029.

Regarding GTGGATATTT, the switch fluorescence ratio was 0.986 ± 0.015.

Regarding GTGGATGTAC, the switch fluorescence ratio is 1.06 ± 0.05.

For GTGGATTGCG, the switch fluorescence ratio is 0.9975 ± 0.0075.

In the case of GTGGCAAAGT, the switch fluorescence ratio came out at 0.9678 ± 9.7e-05.

Turning to GTGGCACTGT, the switch fluorescence ratio stood at 0.989 ± 0.019.

On to GTGGCCAACC, for which the switch fluorescence ratio was 1.02 ± 0.0022.

In the case of GTGGCGGGAG, the switch fluorescence ratio was found to be 0.997 ± 0.017.

For the sequence GTGGCGGTTT, the switch fluorescence ratio came to 0.995 ± 0.044.

Take GTGGCGTAGA: the switch fluorescence ratio was determined as 1.02 ± 0.012.

As to GTGGCGTGCT, the switch fluorescence ratio turned out to be 0.976 ± 0.045.

Consider GTGGCTCAGG, for which the switch fluorescence ratio was 1.05 ± 0.054.

Regarding GTGGCTGGG, the switch fluorescence ratio was found to be 0.988 ± 0.038.

GTGGGAAGTC: the switch fluorescence ratio came out at 0.965 ± 0.04.

For GTGGGAAGTG, the switch fluorescence ratio amounted to 0.975 ± 0.025.

For GTGGGACATA, the switch fluorescence ratio turned out to be 0.999 ± 0.044.

As for GTGGGATGAT, the switch fluorescence ratio amounted to 0.9663 ± 0.0078.

Take GTGGGATTGC: the switch fluorescence ratio is 0.9959 ± 0.0067.

Consider GTGGGCCGCG, for which the switch fluorescence ratio was 0.979 ± 0.029.

For GTGGGCGATT, the switch fluorescence ratio was found to be 1.01 ± 0.024.

In the case of GTGGGGCGCC, the switch fluorescence ratio was determined as 1.01 ± 0.03.

In the case of GTGGGGGTGC, the switch fluorescence ratio is 0.987 ± 0.033.

As to GTGGGGTAAA, the switch fluorescence ratio amounted to 1.01 ± 0.055.

As to GTGGGGTACT, the switch fluorescence ratio came out at 0.9612 ± 0.0055.

Turning to GTGGGGTTGC, the switch fluorescence ratio amounted to 0.984 ± 0.021.

Turning to GTGGGTAACT, the switch fluorescence ratio stood at 0.998 ± 0.041.

For GTGGGTACGG, the switch fluorescence ratio came to 1 ± 0.028.

As for GTGGGTATTG, the switch fluorescence ratio came to 1 ± 0.02.

On to GTGGGTCATA, for which the switch fluorescence ratio was 0.953 ± 0.099.

In the case of GTGGGTCCTA, the switch fluorescence ratio turned out to be 0.9891 ± 0.0013.

GTGGGTCGGG: the switch fluorescence ratio worked out at 1.006 ± 0.0049.

GTGGGTTCGC: the switch fluorescence ratio was found to be 1 ± 0.043.

On to GTGGGTTGGC, for which the switch fluorescence ratio is 1.03 ± 0.043.

Consider GTGGGTTGTA, for which the switch fluorescence ratio is 1.01 ± 0.05.

With GTGGTAACTT, the switch fluorescence ratio was found to be 1.007 ± 0.0082.

For GTGGTAAGCT, the switch fluorescence ratio was found to be 1.02 ± 0.049.

Turning to GTGGTACACG, the switch fluorescence ratio was 1.01 ± 0.026.

As to GTGGTACGTG, the switch fluorescence ratio was 1 ± 0.064.

Turning to GTGGTAGGGC, the switch fluorescence ratio is 1.021 ± 0.001.

GTGGTAGTGG: the switch fluorescence ratio is 0.949 ± 0.023.

As to GTGGTCCGGG, the switch fluorescence ratio worked out at 0.979 ± 0.037.

As for GTGGTCCGTG, the switch fluorescence ratio is 0.962 ± 0.0097.

For the sequence GTGGTCGTGC, the switch fluorescence ratio is 0.9761 ± 0.0041.

GTGGTGAGGC: the switch fluorescence ratio is 1.001 ± 0.0055.

For the sequence GTGGTGAGTG, the switch fluorescence ratio is 0.97 ± 0.021.

Take GTGGTGGCTG: the switch fluorescence ratio was determined as 0.976 ± 0.048.

For the sequence GTGGTGGGTC, the switch fluorescence ratio came to 0.975 ± 0.026.

Take GTGGTGGGTG: the switch fluorescence ratio came to 1 ± 0.091.

For GTGGTTAAGA, the switch fluorescence ratio turned out to be 0.9961 ± 0.002.

The values above are taken from the supplement of paper PMC10126150.
